Assay results reported in paper PMC6220978, “Induced conformational changes activate the peptidoglycan synthase PBP1B” (Molecular Microbiology, 2018).
Substitutions are numbered along the chain they refer to.

Legend:
Test in all cases: SPR; PBP1B versions immobilised to the chip surface; LpoB injected from 19.5 nM to 10 μM; apparent KD by non-linear regression, at least three independent experiments
Details in all cases: both partners purified
PBP1B N112G = biological target: T1, PBP1B N112G (E. coli, UniProt P02919 46-844, N112G)
T1 construct: PBP1B, E. coli, residues 46-844, made by mutagenesis of pDML924; source: E. coli BL21(DE3), purified (membrane extract, HisTrap, thrombin, HiTrap SP ion exchange)
T1 sequence (looked up): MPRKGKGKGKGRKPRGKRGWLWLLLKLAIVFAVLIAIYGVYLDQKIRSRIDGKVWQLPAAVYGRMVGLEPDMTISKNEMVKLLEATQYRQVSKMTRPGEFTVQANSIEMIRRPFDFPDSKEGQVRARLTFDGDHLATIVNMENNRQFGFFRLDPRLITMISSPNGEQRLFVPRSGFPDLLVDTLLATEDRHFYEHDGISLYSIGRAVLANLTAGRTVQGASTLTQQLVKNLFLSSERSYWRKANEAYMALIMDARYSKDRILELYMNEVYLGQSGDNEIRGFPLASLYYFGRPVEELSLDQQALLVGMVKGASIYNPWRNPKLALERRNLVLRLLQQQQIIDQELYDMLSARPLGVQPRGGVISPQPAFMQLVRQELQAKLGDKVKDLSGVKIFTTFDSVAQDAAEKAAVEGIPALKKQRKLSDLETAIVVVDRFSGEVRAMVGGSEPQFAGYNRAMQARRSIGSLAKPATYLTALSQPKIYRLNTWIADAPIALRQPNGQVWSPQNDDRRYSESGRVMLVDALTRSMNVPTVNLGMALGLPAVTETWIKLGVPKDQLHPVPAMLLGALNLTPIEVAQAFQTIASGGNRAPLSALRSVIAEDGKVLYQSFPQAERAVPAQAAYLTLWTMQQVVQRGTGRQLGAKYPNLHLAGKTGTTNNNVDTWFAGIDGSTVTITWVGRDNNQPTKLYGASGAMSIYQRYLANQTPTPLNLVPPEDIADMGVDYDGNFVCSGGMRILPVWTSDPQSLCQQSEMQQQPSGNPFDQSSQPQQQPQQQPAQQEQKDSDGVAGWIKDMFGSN

PBP1B E341A = biological target: T2, PBP1B E341A (E. coli, UniProt P02919 46-844, E341A)
T2 construct: PBP1B, E. coli, residues 46-844, made by mutagenesis of pDML924; source: E. coli BL21(DE3), purified (membrane extract, HisTrap, thrombin, HiTrap SP ion exchange)
T2 sequence (looked up): T1 sequence (looked up) with G67N, E296A

PBP1B^Δ158–160 = biological target: T3, PBP1B^Δ158–160 (E. coli, UniProt P02919 46-844, Δ158–160)
T3 construct: PBP1B, E. coli, residues 46-844 with residues 158-160 of Loop 1 removed, made by mutagenesis of pDML924; also called Loop 1 truncation; source: E. coli BL21(DE3), purified (membrane extract, HisTrap, thrombin, HiTrap SP ion exchange)
T3 sequence (looked up): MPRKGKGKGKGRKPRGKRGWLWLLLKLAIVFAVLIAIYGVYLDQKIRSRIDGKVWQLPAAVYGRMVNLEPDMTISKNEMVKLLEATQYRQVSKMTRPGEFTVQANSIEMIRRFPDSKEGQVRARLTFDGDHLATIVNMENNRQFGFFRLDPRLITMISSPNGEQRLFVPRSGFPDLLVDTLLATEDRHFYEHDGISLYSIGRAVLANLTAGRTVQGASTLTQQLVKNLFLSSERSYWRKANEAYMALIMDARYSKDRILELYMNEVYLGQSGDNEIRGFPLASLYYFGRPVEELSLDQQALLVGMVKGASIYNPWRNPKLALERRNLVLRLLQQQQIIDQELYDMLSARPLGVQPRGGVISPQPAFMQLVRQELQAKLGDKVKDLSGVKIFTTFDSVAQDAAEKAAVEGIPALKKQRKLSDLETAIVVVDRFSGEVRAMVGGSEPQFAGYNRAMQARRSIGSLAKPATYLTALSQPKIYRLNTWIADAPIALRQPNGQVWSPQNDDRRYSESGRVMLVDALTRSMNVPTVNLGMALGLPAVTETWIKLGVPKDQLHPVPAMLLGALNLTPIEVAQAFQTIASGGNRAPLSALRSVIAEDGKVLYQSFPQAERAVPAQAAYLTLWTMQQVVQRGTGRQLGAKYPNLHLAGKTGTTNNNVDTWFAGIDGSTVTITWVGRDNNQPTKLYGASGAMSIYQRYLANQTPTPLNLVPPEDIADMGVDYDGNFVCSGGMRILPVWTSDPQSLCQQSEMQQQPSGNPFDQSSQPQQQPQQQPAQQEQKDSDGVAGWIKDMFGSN

B1: LpoB (natural protein, E. coli)
chain: VGQREPAPVEEVKPAPEQPAEPQQPVPTVPSVPTIPQQPGPIEHEDQTAPPAPHIRHYDWNGAMQPMVSKMLGADGVTAGSVLLVDSVNNRTNGSLNAAEATETLRNALANNGKFTLVSAQQLSMAKQQLGLSPQDSLGTRSKAIGIARNVGAHYVLYSSASGNVNAPTLQMQLMLVQTGEIIWSGKGAVSQQ
notes: LpoB, E. coli; also called lipoprotein LpoB; source: E. coli BL21(DE3), purified (HisTrap, Superdex 200), as in Egan et al. 2014
- Kd (PBP1B N112G): 0.356 µM
- Kd (PBP1B E341A): 0.273 µM
- Kd (PBP1B^Δ158–160): 1.9 µM
